B1: TPR t1 (parent)
chain: GACCAAUCUGCCCUCAGAGCUCGAGAACAUCUUCGGAUGCAGAGGAGGCAGGCUUCGGUGGCGCGAUAGCGCCAACGUCCUCAACCUCCAAUGCAUCCCACCACAUGAUGAUGCCUGAAGAGCCUUGGUUUUUUG

Variants of: B1
Assay: polymerase ribozyme fitness, log enrichment relative to wild type (log ratio); higher = more active; in vitro selection for triplet polymerase activity
Method in brief: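 Fitness compares each genotype's enrichment to that of the wild type on a logarithmic scale, averaging replicates with inverse-variance weights. The logarithm is base 2. Enrichment came from Illumina sequencing of input and output libraries after one triplicate round of in vitro selection, which included frozen incubation at −7 °C, of PCR-built, transcribed mutant libraries of each subunit of a heterodimeric triplet polymerase ribozyme. Only genotypes with ≥10 input reads and ≥1 read per output were kept.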

Variant | polymerase ribozyme fitness (log ratio)
C8A C72G C101G | -2.08
C8A C72U | 0.071
C8A C76U U87A U112A A121C U133G | 0.984
C8A C80G C82G C88A C114U | -6.78
C8A C80U A105C U112G G120C | -3.09
C8A C82G | -0.777
C8A C89U | 0.136
C8A C94A A119G | -0.132
C8A C123U | 1.44
C8A G10A G47A | -1.74
C8A G19A U87C A91C G113C G127C | -2.18
C8A G19C U59A C82A | -3.12
C8A G35A C89U G117C | -6.27
C8A G35U | -4.85
C8A G36U G42A C62U | -2.62
C8A G39U C64U A111U U116G U129G | -5.99
C8A G42A C62A C114U | -2.59
C8A G44A G57A G77A G110U C123U | -4.41
C8A G45U C56U A84C A95U | -1.21
C8A G47C U133G | -1.25
C8A G48A C101G C115U | -4.25
C8A G48U U59G A105C U112C G120A | -1.08
C8A G48U U59G C73G A105C U112C G120A | -2.35
C8A G58C | 0.847

Variant | polymerase ribozyme fitness (log ratio)
C8A G58C U59C A105C U132A | -2.68
C8A G60A | -0.104
C8A G61A | -0.475
C8A G61C A119G U126G | -2.44
C8A G61U A83C A100C | -0.341
C8A G63C U78C U81A C101A U109G | -5.76
C8A G65C C115A C123G | -4.88
C8A G69U C88G G128C | -3.18
C8A G71A C104A | -2.19
C8A G93C | 0.003
C8A G135A | -0.0375
C8A U9G A26G G44A G45U G63U C115A | -3.15
C8A U9G C94G | -0.653
C8A U14C G93U | -0.798
C8A U14G U55A C62U U78A A100C | -1.37
C8A U21C C62U A83G G117A | -1.21
C8A U21C G58C C82A U106G U132A | -1.35
C8A U32A A90G | -4.24
C8A U38A A46C | -1.09
C8A U59G C114U | -0.559
C8A U78C | 0.0167
C8A U78C G113C | -0.875
C8A U112A G128U | 0.095
C8A U112C U125A | 1.71

Variant | polymerase ribozyme fitness (log ratio)
C8G | 0.574
C8G A16C U87A | -0.437
C8G A16G C56G C72A A100C | -1.46
C8G A16U A18U G58C C79A U109A | -6.59
C8G A18C A37C G120C | 0.00671
C8G A18U A111G G128A U132C | -2.59
C8G A18U G44U G47A C102A G120A A121C C124U | -6.31
C8G A26U A29G | -3.46
C8G A27G C64U C72U G93U C104A A111U U125C | -3.56
C8G A27U A29U G69U C101A C114U | -5.18
C8G A37U C49U U54G U133G | -1.23
C8G A41C G63U C64U G113A A118G | -7.5
C8G A41G G71A U78G G122U | -1.62
C8G A43C G45A A50G G113U G120C | -2.24
C8G A43U | -0.695
C8G A43U C53U U106A | -1.57
C8G A43U C88G G110U G120U | -4.09
C8G A43U U54C C72G C114A A118G | -5.83
C8G A46C U81A C88U G113A | -1.64
C8G A46G A83G U126G G127A | -1.72
C8G A46U C104A U106C U116C | -3.35
C8G A50C | 0.0345
C8G A50C C79U A90U | -1.96
C8G A50G U106G G120A | 1.23

Variant | polymerase ribozyme fitness (log ratio)
C8G A68G | -2.09
C8G A74U | 0.0385
C8G A90C A91U A95G | -1.14
C8G A91G C115U | -0.682
C8G A91U A95C | -1.32
C8G A111C G113U | -3.45
C8G A111U | -1.64
C8G A118U | 1.5
C8G A121G | 1.62
C8G C11A G51A G71U U106G G113U U125G | -6.93
C8G C11G A41C C49A | -0.887
C8G C11G G36U G71C U78G U132A | -4.02
C8G C11U A16C G44C U59C G60A C115G | -4.64
C8G C11U C82A U112A | 0.802
C8G C11U G63U C124A | 1.09
C8G C11U U116C G120U | 0.747
C8G C12G A27U C64U | -1.4
C8G C12G C56U U106G U112G A118C U133G | -1.11
C8G C12G C73U A83G G113C | -2.3
C8G C12G G60U G93A | -0.276
C8G C12G U59G U129C | 0.2
C8G C12U A68G G122A C123U | -1.28
C8G C12U C97G | -3.16
C8G C12U U21G G39C | -1.78

Variant | polymerase ribozyme fitness (log ratio)
C8G C13A A91G U106G G117U | -3.24
C8G C13A G52C U92A | -3.15
C8G C13G C98U | -0.112
C8G C13U C40G C124G | 0.821
C8G C15A G39A G52C U59A C89A G117A | -2.57
C8G C15G | -1.24
C8G C15U A46C C72U G93A G110A | -2.41
C8G C15U C49A G93C | -1.27
C8G C15U C89G G93A C101U G113C C114U G127C | -3.86
C8G C20A C82U A100C U112C | -3.16
C8G C20G C40G U96C U112A | -6.13
C8G C20G G63A C124G | -4.75
C8G C20U A46U G52C A91G | -4.53
C8G C20U A84U G122U | -0.907
C8G C22G G47A C70U G77U | -4.84
C8G C22U A43G C88U C97A C99U C101U C102G G110C | -6.9
C8G C31A A41U C73G U112A | -6.12
C8G C31A A50C G113U | -5.53
C8G C49A U96G | 0.183
C8G C53A | 0.628
C8G C56G | 0.255
C8G C56G G63C U126C | -3.33
C8G C72A C102A | -1.22
C8G C72U C89A A105U | -3.93

Variant | polymerase ribozyme fitness (log ratio)
C8G C73G A91G | -1.87
C8G C73U A91G C101G | -2.3
C8G C73U C86U | 0.186
C8G C80G | -4.19
C8G C82A C97A | -4.13
C8G C82U C97U G127C | -0.232
C8G C86A A105C | -1.39
C8G C88A A111C | 0.461
C8G C89A C94G | -2.14
C8G C89A C114U | -0.406
C8G C98A C102A C115A | -3.34
C8G C101A | -0.236
C8G C102U | -1.57
C8G C104A | -0.951
C8G C104G U116C A121U G122U U129C | -7.72
C8G C114A | 0.0806
C8G C114U C123A | -0.55
C8G C115A | 0.863
C8G C124A | 2.31
C8G G10C U55G A91C | -1.21
C8G G17C C53U | -2.9
C8G G17U | -0.274
C8G G17U A26U G120U | -2.91
C8G G17U G48A G57U U112G C114U | -5.14

Variant | polymerase ribozyme fitness (log ratio)
C8G G17U U59G C115G A118G | 0.49
C8G G19U G48A A50U U54G U96A C114A | 0.218
C8G G19U U125A | -2.65
C8G G23A G61U U109A U112A | -6.91
C8G G35C | -4.29
C8G G35C U131A | -5.09
C8G G36A G44A | -1.23
C8G G36U | 0.298
C8G G39A G63U A84U | -1.03
C8G G39A G117U U132A | 0.363
C8G G39U C70U U78A | -0.697
C8G G39U C80A | -2.47
C8G G42A | -0.64
C8G G44C C49A | 0.0557
C8G G44C C64U C76A C124G | -6.22
C8G G44C C70A A84C C115U | -5.29
C8G G47U C123U | 0.786
C8G G48A G63C C72U C88A | -4.05
C8G G48U | -0.882
C8G G48U C72A | 0.0646
C8G G48U G58C A75U U109C G113U | -6.98
C8G G48U G60U C85U U92A | -3.06
C8G G48U G113A U126C | -0.687

From the RNAGym collection of RNA variant scans (doi:10.1073/pnas.2313332121)
